Reference: patent publication US20250026827A1 (Alector, published 2025)
Where two headings read alike, the source gives them in different places.

Experiments:
[1] = target: T1, human SIRPβ1 domain 1 (D1) Fc fusion (human, UniProt O00241 30-148); test: Octet, IgG avid
T1 construct: Made in HEK293/T cells with a heterologous signal peptide; also called Human SIRPβ1 D1-Fc; Human SIRPβ1-Fc; not shown: C-terminal human IgG1 Fc

[2] = target: T2, human SIRPβ1 isoform 1 on cells (human, UniProt O00241 30-398); test: cell binding titration; target not given
T2 construct: On CHO cells (low level), on BWZ/BW5147.G.1.4 cells (reporter cells co-express human DAP12) or on primary human myeloid cells; also called huSIRPβ1; BWZ-huSIRPβ1
T2 sequence (O00241 30-398): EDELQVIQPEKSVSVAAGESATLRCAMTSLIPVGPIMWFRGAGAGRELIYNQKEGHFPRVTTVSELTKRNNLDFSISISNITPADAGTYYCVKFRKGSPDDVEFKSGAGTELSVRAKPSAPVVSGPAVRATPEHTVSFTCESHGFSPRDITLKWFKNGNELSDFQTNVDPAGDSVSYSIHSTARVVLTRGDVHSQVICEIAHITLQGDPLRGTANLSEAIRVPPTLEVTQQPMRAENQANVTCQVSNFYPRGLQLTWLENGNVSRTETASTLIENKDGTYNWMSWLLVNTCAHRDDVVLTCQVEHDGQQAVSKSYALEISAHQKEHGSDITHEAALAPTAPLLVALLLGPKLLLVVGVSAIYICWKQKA

[3] = target: T2, human SIRPβ1 isoform 1 on cells; test: flow cytometry
[4] = target: T3, human SIRPα on cells (human, UniProt P78324 31-504); test: flow cytometry
T3 construct: Whole entry

[5] = target: T4, mouse SIRPα on cells (mouse, UniProt P97797 32-513); test: flow cytometry;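 as to FOB: antibodies tested at 1 µg/ml for 30 min on ice against receptor-expressing cells, detected with a PE-labelled secondary antibody, read as mean fluorescence intensity relative to background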
T4 construct: whole, on cells
T4 sequence (looked up): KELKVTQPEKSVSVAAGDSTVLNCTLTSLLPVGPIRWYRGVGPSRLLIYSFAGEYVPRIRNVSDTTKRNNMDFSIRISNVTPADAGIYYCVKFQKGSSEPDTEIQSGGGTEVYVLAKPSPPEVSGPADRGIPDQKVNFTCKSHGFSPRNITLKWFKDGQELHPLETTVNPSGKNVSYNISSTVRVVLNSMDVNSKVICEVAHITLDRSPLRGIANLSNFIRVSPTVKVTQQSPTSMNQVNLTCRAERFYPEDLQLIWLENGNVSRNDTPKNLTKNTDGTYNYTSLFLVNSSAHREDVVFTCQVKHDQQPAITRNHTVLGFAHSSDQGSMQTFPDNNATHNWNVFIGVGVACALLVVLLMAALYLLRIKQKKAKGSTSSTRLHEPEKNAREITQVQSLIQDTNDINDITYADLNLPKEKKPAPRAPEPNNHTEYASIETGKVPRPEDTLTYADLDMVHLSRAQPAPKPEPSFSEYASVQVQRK

[6] = target: T5, mouse SIRPβ1 on CHO cells (mouse); test: flow cytometry
T5 construct: Whole entry
T5 chain: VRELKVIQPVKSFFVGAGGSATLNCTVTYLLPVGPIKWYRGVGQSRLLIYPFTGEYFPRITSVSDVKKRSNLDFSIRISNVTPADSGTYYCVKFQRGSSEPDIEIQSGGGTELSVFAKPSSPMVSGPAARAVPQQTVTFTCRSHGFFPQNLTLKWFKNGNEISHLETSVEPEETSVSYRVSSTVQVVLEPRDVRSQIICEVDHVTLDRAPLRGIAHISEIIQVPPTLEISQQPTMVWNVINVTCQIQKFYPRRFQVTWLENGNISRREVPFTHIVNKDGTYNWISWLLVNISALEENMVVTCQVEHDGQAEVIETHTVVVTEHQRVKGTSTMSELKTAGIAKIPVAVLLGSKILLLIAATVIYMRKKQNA

[7] = target: T2, human SIRPβ1 isoform 1 on cells; test: flow cytometry; remark: listed apart in the source
Protocol: (§1) Cells were then washed twice and incubated in 100 ul FACS buffer containing 0.5 μg/ml PE-conjugated secondary antibody for 30 minutes on ice. Cells were washed twice in cold FACS buffer and acquired on a BD FACS Canto. Data analysis and calculation of mean fluorescence intensity (MFI) values or 00 positive cells was performed with FlowJo (TreeStar) software version 10.0.7.
(§2) Given the high sequence similarity between receptors of the SIRPβ family, anti-SIRPβ1 antibodies were also screened for cross-reactivity to human SIRPα.

[8] = target: T3, human SIRPα on cells; test: flow cytometry; remark: listed apart in the source
Protocol: as §1, §2

[9] = target: T5, mouse SIRPβ1 on CHO cells; test: flow cytometry
Protocol: as §1, §2

[10] = target: T6, human SIRPα domain 1 (D1) Fc fusion (human, UniProt P78324 32-149); test: Octet, IgG avid
T6 construct: also called human SIRPα D1-Fc; Human SIRPα Fc; not shown: C-terminal human IgG1 Fc

[11] = target: T3, human SIRPα on cells; test: flow cytometry; remark: listed apart in the source
[12] = target: T4, mouse SIRPα on cells; test: flow cytometry; remark: listed apart in the source;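 as to FOB: antibodies tested at 1 µg/ml for 30 min on ice against receptor-expressing cells, detected with a PE-labelled secondary antibody, read as mean fluorescence intensity relative to background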
[13] = target: T5, mouse SIRPβ1 on CHO cells; test: flow cytometry
[14] = target: T7, Soluble, human SIRPβ1-Fc isoform 1 (O00241) (human, UniProt O00241 30-371, limits assumed); test: ELISA, antigen coated
T7 construct: Whole entry named; also called human SIRPβ1 isoform 1
T7 sequence (O00241 30-371 limits assumed, one chain of several): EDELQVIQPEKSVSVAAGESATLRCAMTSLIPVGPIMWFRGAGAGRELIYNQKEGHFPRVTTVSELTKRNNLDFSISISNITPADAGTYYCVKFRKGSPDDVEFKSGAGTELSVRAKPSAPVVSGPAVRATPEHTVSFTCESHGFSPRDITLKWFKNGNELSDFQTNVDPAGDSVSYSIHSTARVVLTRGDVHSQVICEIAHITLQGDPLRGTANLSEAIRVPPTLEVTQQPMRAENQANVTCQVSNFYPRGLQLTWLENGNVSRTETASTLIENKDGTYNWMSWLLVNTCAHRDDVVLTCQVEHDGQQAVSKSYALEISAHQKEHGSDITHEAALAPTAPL
Description: Recombinant antigen based on the sequence of SIRPβ1 isoform 1 was used for selecting anti-SIRPβ1 antibodies from yeast library pools. To ascertain if the selected anti-SIRPβ1 antibodies cross-reacted with other isoforms of human SIRPβ1 or with cynomolgus SIRPβ1, recombinant antigens based on human SIRPβ1 isoform 3 sequence and cynomolgus SIRPβ1 isoform 1 sequence were produced by transient transfection in HEK293 cells. Purified, Fc-tagged recombinant proteins were adsorbed onto 96-well plates at 1 μg/mL overnight at 4° C. Plates were subsequently washed with PBS+0.05% Tween-20 and blocked with 1% BSA+PBS for 2 hours at room temperature. Antibodies diluted in blocking buffer at 1 μg/mL were added to wells, serially diluted, and allowed to bind antigen overnight at 4° C. The following day, the primary antibodies were removed and anti-human kappa light chain antibody conjugated to horseradish peroxidase diluted 1:10,000 in blocking buffer were added to wells and incubated for 1 hour at room temperature. Plates were washed with PBS+0.05% Tween-20 and 100 μL of TMB substrate solution was added to wells to generate a colorimetric signal proportional to amount of anti-SIRPβ1 antibody bound to antigen. Once the reaction reached an appropriate color intensity, 100 μL of Stop solution was added to quench the enzyme.
Eight anti-SIRPβ1 antibodies (four parental antibodies and four corresponding affinity matured antibodies) were selected for analysis.

[15] = target: T8, human SIRPβ1-Fc isoform 3 (Q5TFQ8) (human, UniProt Q5TFQ8 30-371, limits assumed); test: ELISA on plate-coated huSirpB-Fc (Q5TFQ8.1), anti-human kappa-HRP, A450
T8 construct: Whole entry named; made in HEK293 cells; also called human SIRPβ1 isoform 3
T8 sequence (Q5TFQ8 30-371 limits assumed, one chain of several): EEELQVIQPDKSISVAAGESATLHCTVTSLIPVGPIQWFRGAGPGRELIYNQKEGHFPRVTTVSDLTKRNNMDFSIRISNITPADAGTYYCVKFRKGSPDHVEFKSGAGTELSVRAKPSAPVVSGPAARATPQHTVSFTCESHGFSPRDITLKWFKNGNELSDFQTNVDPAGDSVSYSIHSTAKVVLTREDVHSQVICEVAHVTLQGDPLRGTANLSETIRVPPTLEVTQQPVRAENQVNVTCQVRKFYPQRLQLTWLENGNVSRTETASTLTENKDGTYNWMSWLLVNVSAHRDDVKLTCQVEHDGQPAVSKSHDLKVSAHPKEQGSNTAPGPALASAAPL
Description: Among the multiple SIRPβ1 isoforms catalogued, isoform 1 is the full-length version of the receptor primarily expressed in the periphery. Recombinant antigen based on the sequence of SIRPβ1 isoform 1 was used for selecting anti-SIRPβ1 antibodies from yeast library pools. To ascertain if the selected anti-SIRPβ1 antibodies cross-reacted with other isoforms of human SIRPβ1 or with cynomolgus SIRPβ1, recombinant antigens based on human SIRPβ1 isoform 3 sequence and cynomolgus SIRPβ1 isoform 1 sequence were produced by transient transfection in HEK293 cells. Purified, Fc-tagged recombinant proteins were adsorbed onto 96-well plates at 1 μg/mL overnight at 4° C. Plates were subsequently washed with PBS+0.05% Tween-20 and blocked with 1% BSA+PBS for 2 hours at room temperature. Antibodies diluted in blocking buffer at 1 μg/mL were added to wells, serially diluted, and allowed to bind antigen overnight at 4° C. The following day, the primary antibodies were removed and anti-human kappa light chain antibody conjugated to horseradish peroxidase diluted 1:10,000 in blocking buffer were added to wells and incubated for 1 hour at room temperature. Plates were washed with PBS+0.05% Tween-20 and 100 μL of TMB substrate solution was added to wells to generate a colorimetric signal proportional to amount of anti-SIRPβ1 antibody bound to antigen. […]

[16] = target: T9, mouse SIRPα D1-Fc (mouse, UniProt P97797 32-150, limits assumed); test: Octet
T9 construct: domain: D1
T9 sequence (looked up): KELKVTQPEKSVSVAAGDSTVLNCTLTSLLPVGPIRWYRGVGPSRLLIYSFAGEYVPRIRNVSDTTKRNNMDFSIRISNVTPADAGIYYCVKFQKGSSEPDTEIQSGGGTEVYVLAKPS

T1 sequence (O00241 30-148 limits assumed): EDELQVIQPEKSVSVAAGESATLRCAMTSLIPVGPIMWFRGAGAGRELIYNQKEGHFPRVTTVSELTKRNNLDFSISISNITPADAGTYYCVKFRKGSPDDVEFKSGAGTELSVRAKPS

B1: SB-40 (antibody, V domains shown)
VH: QVQLVQSGAEVKKPGASVKVSCKASGYTFTSYYMSWVRQAPGQGLEWMGIINPSGGSTSYAQKFQGRVTMTRDTSTSTVYMELSSLRSEDTAVYYCARDTGEYSYSPHGMDVWGQGTTVTVSS
VL: EIVLTQSPATLSLSPGERATLSCRASQSVSSYLAWYQQKPGQAPRLLIYDSSNRATGIPARFSGSGSGTDFTLTISSLEPEDFAVYYCQQRDEHPPWTFGGGTKVEIK
notes: IgG; also called SB-40 (p)
- Kd [1]: 9.64 nM
- EC50 [2]: 0.707 nM
- FOB [3]: 7 fold over background
- FOB [4]: 2.5 fold over background
- FOB [5]: 1.2 fold over background
- FOB [6]: 1.1 fold over background
- FOB [7]: 2 fold over background
- FOB [8]: 1 fold over background
- FOB [9]: 1 fold over background
- binding result [10]: no binding (tested: 100 nM)
- binding result [11]: no binding (tested: 1 ug/ml)
- binding result [12]: no binding (tested: 1 ug/ml)
- binding result [13]: no binding (tested: 1 ug/ml)
- EC50 [14]: 0.04 nM
- binding result [15]: no binding (tested: 1 ug/mL)
- binding result [16]: no binding (tested: 100 nM)
